# Earlier results in US20230002502A1, “METHODS AND PRODUCTS FOR REDUCING SIDE EFFECTS ASSOCIATED WITH USE OF IMMUNE AGONIST ANTIBODIES” (South Australian Health and Medical Research Institute …, priority 2019, published 2023).
# “Also recorded” adds a separate entry of the source. Where two headings read alike, the source gives them in different places.
# System: patients
# Conditions: for toxicity reported in clinical trials: patients
substance,measurement,setting,value
"urelumab: an anti-CD137 IAA, IgG4",clinical trial results at lower dose,"8 mg/patient, alone or in combination with anti-PD1",overall disappointing results
same,toxicity reported in clinical trials,,"severe dose-dependent liver toxicity; also recorded: high rates of dose dependent liver toxicity, resulting in several deaths"
same,toxicity reported in clinical trials,listed as Urelumab,severe (grade 3 and above) liver damage
